From article PMC2133107 (The Journal of Cell Biology, 1999)

Experiments:
[1] = biological target: Ran wild type, Ran-[γ-32P]GTP (UniProt P62826)
[2] = biological target: Human CRM1 (recombinant, untagged) (human, UniProt O14980 1-1071)
Chain of Human CRM1 (recombinant, untagged) (human, UniProt O14980 1-1071) (O14980 whole entry): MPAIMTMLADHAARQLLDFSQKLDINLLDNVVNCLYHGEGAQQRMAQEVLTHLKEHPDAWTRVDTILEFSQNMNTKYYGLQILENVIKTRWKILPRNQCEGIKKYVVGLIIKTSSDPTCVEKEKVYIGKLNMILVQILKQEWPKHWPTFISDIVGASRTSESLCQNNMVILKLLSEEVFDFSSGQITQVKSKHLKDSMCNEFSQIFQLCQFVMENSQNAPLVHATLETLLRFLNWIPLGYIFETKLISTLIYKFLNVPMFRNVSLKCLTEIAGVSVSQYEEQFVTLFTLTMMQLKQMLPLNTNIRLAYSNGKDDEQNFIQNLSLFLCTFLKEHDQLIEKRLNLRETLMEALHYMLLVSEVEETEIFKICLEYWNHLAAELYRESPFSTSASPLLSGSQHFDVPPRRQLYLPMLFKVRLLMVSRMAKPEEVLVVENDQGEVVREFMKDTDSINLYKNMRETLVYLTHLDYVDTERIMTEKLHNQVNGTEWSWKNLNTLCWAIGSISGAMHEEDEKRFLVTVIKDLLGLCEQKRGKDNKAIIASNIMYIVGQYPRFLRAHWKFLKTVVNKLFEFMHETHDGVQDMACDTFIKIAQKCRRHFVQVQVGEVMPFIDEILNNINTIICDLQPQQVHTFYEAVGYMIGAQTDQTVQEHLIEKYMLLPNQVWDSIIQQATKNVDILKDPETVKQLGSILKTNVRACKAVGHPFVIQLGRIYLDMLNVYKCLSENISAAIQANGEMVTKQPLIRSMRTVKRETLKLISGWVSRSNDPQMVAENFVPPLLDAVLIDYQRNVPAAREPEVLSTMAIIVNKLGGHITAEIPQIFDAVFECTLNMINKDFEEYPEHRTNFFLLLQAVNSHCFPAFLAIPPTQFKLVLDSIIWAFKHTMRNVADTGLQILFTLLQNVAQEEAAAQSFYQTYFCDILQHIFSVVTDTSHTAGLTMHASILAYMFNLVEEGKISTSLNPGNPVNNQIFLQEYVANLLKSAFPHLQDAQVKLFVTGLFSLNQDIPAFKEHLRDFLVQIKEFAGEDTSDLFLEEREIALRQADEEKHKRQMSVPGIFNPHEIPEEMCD

Human CRM1 (recombinant, untagged) (from UniProt O14980 1-1071) (natural protein; other documents disagree on this pair)
Kd [1]: > 1 µM

B1: HIV Rev protein (natural protein)
chain: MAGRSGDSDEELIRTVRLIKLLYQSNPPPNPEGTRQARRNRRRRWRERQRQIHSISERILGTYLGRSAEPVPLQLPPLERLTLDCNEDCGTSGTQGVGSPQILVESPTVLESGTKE
Kd [2]: ~0.5 µM

B2: Rev-NES peptide 2 (peptide)
peptide: CPVPLQLPPLERLTLD
Kd [2]: ~7 µM

B3: Rev-NES peptide 1 (peptide)
peptide: CLPPLERLTL
Kd [2]: ~50 µM
